Measurements: patent US20260242419A1, “A CYCLIC PEPTIDE FOR TRAPPING INTERLEUKIN-1 BETA” (Merck Sharp & Dohme LLC, priority 2023, published 2026)
Starred links: 1 amine or outer side, 2 acyl side, 3 side chain; linkers in the order of their positions; H or OH if unused. Non-standard residues stand in square brackets, D forms with d. orbOHorPhe4COOH = 4-[(1R,2S)-2-amino-2-carboxy-1-hydroxy-ethyl]benzoic acid, O=C([C@@H](N[*:1])[C@H](O)c1ccc(C(=O)[*:3])cc1)[*:2]; Phe4PyrimOMe = (S)-2-amino-3-(4-(2-methoxypyrimidin-5-yl)phenyl)propanoic acid, COc1ncc(-c2ccc(C[C@H](N[*:1])C(=O)[*:2])cc2)cn1; Phe4ImMe = (S)-2-amino-3-(4-(1-methyl-1H-imidazol-4-yl)phenyl)propanoic acid, Cn1cnc(-c2ccc(C[C@H](N[*:1])C(=O)[*:2])cc2)c1; Phe42ImMe = (S)-2-amino-3-(4-(1-methyl-1H-imidazol-2-yl)phenyl)propanoic acid, Cn1ccnc1-c1ccc(C[C@H](N[*:1])C(=O)[*:2])cc1; dProc3CH24Pal = (2R,3S)-3-(4-pyridylmethyl)pyrrolidine-2-carboxylic acid, O=C([C@H]1[C@@H](Cc2ccncc2)CCN1[*:1])[*:2]; Phe4Pyrim = (S)-2-amino-3-(4-(pyrimidin-5-yl)phenyl)propanoic acid, O=C([C@H](Cc1ccc(-c2cncnc2)cc1)N[*:1])[*:2]; 4PyrimAla = (2S)-2-amino-3-pyrimidin-4-yl-propanoic acid, O=C([C@H](Cc1ccncn1)N[*:1])[*:2]; Trp(4-Cl)(βS-Me) = C[C@@H](c1c[nH]c2cccc(Cl)c12)[C@H](N)C(=O)O; dPro(4R-(4-pyridylmethyl)) = O=C(O)[C@H]1C[C@@H](Cc2ccncc2)CN1; Trp(βS-Me,4-F) = C[C@@H](c1c[nH]c2cccc(F)c12)[C@H](N)C(=O)O; Bip(4'-COOH) = N[C@@H](Cc1ccc(-c2ccc(C(=O)O)cc2)cc1)C(=O)O; Ala(1-bicyclo(1.1.1)pentyl) = N[C@@H](CC12CC(C1)C2)C(=O)O; Phe(4-(4-pyridyl)) = N[C@@H](Cc1ccc(-c2ccncc2)cc1)C(=O)O; dPro(4R-Bzl(4-F)) = O=C(O)[C@H]1C[C@@H](Cc2ccc(F)cc2)CN1; dPro(3S-(4-F-Bn)) = O=C(O)[C@@H]1NCC[C@@H]1Cc1ccc(F)cc1; 1Nal(3S-Me) = C[C@@H](c1cccc2ccccc12)[C@H](N)C(=O)O; Ala(morpholin-4-yl) = N[C@@H](CN1CCOCC1)C(=O)O; Ala(piperazin-1-yl) = N[C@@H](CN1CCNCC1)C(=O)O; Ala(pyrimidin-5-yl) = N[C@@H](Cc1cncnc1)C(=O)O; Phe(4-COOH) = N[C@@H](Cc1ccc(C(=O)O)cc1)C(=O)O; Bip = N[C@@H](Cc1ccc(-c2ccccc2)cc1)C(=O)O; Pro(cis-4-F) = O=C(O)[C@@H]1C[C@H](F)CN1; Ala(4-THP) = N[C@@H](CC1CCOCC1)C(=O)O; d(αMeD) = C[C@@](N)(CC(=O)O)C(=O)O; 4Pal = N[C@@H](Cc1ccncc1)C(=O)O; aThr = C[C@H](O)[C@H](N)C(=O)O; Dab = NCC[C@H](N)C(=O)O; Aib = CC(C)(N)C(=O)O

B1: SEQ ID NO 288 (peptide)
peptide: cyclo([Bip][4Pal][Phe(4-COOH)]G[Pro(cis-4-F)][1Nal(3S-Me)][Aib]SW[d(αMeD)][aThr]Q[Dab]G[dPro(4R-(4-pyridylmethyl))])
modifications: ring closure inferred
B2: SEQ ID NO 289 (peptide)
peptide: cyclo([Bip][4Pal][Phe(4-COOH)]G[Pro(cis-4-F)][Trp(4-Cl)(βS-Me)][Aib]SW[d(αMeD)][aThr]Q[Dab]G[dPro(4R-(4-pyridylmethyl))])
modifications: ring closure inferred
B3: SEQ ID NO 279 (peptide)
peptide: cyclo([Phe4ImMe][4Pal][Phe(4-COOH)]G[Pro(cis-4-F)][Trp(βS-Me,4-F)][Aib]SW[d(αMeD)][Ala(pyrimidin-5-yl)]Q[Dab]G[dPro(3S-(4-F-Bn))])
modifications: ring closure inferred
B4: SEQ ID NO 292 (peptide)
peptide: cyclo([Bip][4Pal][Phe(4-COOH)]G[Pro(cis-4-F)][Trp(4-Cl)(βS-Me)][Aib]SW[d(αMeD)][Ala(pyrimidin-5-yl)]Q[Dab]G[dPro(4R-(4-pyridylmethyl))])
modifications: ring closure inferred; not fully specified (N-terminus); printed as cyclic, Bip-4Pal-Phe4COOH-G-Proc4F-SbMeW4Cl-Aib-S-W-daMeD-PyrimAla-Q-Dab-G-dProc4CH24Pal
B5: SEQ ID NO 280 (peptide)
peptide: cyclo([Phe42ImMe][4Pal][Phe(4-COOH)]G[Pro(cis-4-F)][Trp(βS-Me,4-F)][Aib]SW[d(αMeD)][Ala(pyrimidin-5-yl)]Q[Dab]G[dPro(3S-(4-F-Bn))])
modifications: ring closure inferred
B6: SEQ ID NO 276 (peptide)
peptide: cyclo([Bip(4'-COOH)][4Pal][Phe(4-COOH)]G[Pro(cis-4-F)][Trp(βS-Me,4-F)][Aib]EW[Aib]HQ[Dab]G[dPro(4R-Bzl(4-F))])
modifications: ring closure inferred
B7: SEQ ID NO 278 (peptide)
peptide: cyclo(Y[4Pal][Phe(4-COOH)]G[Pro(cis-4-F)][Trp(βS-Me,4-F)][Aib]SW[d(αMeD)][Ala(pyrimidin-5-yl)]Q[Dab]G[dPro(3S-(4-F-Bn))])
modifications: ring closure inferred
B8: SEQ ID NO 291 (peptide)
peptide: cyclo([Bip][4Pal][Phe(4-COOH)]G[Pro(cis-4-F)][1Nal(3S-Me)][Aib]SW[d(αMeD)][Ala(pyrimidin-5-yl)]Q[Dab]G[dPro(4R-(4-pyridylmethyl))])
modifications: ring closure inferred
B9: SEQ ID NO 293 (peptide)
peptide: cyclo([Bip][4Pal][Phe(4-COOH)]G[Pro(cis-4-F)][Trp(βS-Me,4-F)][Aib]SW[d(αMeD)][aThr]Q[Dab]G[dPro(4R-(4-pyridylmethyl))])
modifications: ring closure inferred; not fully specified (N-terminus); printed as cyclic, Bip-4Pal-Phe4COOH-G-Proc4F-SbMeW4F-Aib-S-W-daMeD-alT-Q-Dab-G-dProc4CH24Pal
B10: SEQ ID NO 283 (peptide)
peptide: cyclo([Phe(4-(4-pyridyl))][4Pal][Phe(4-COOH)]G[Pro(cis-4-F)][Trp(βS-Me,4-F)][Aib]SW[d(αMeD)][Ala(pyrimidin-5-yl)]Q[Dab]G[dPro(3S-(4-F-Bn))])
modifications: ring closure inferred
B11: SEQ ID NO 277 (peptide)
peptide: cyclo([Phe4F][4Pal][Phe(4-COOH)]G[Pro(cis-4-F)][Trp(βS-Me,4-F)][Aib]SW[d(αMeD)][Ala(pyrimidin-5-yl)]Q[Dab]G[dPro(3S-(4-F-Bn))])
modifications: ring closure inferred
B12: SEQ ID NO 290 (peptide)
peptide: cyclo([Bip][4Pal][Phe(4-COOH)]G[Pro(cis-4-F)][1Nal(3S-Me)][Aib]SW[d(αMeD)][Ala(4-THP)]Q[Dab]G[dPro(4R-(4-pyridylmethyl))])
modifications: ring closure inferred
B13: SEQ ID NO 286 (peptide)
peptide: cyclo([Bip(4'-COOH)][4Pal][Phe(4-COOH)]G[Pro(cis-4-F)][Trp(βS-Me,4-F)][Aib]SW[d(αMeD)][Ala(morpholin-4-yl)]Q[Dab]G[dPro(3S-(4-F-Bn))])
modifications: ring closure inferred
B14: SEQ ID NO 281 (peptide)
peptide: cyclo([Phe4PyrimOMe][4Pal][Phe(4-COOH)]G[Pro(cis-4-F)][Trp(βS-Me,4-F)][Aib]SW[d(αMeD)][Ala(pyrimidin-5-yl)]Q[Dab]G[dPro(3S-(4-F-Bn))])
modifications: ring closure inferred
B15: SEQ ID NO 284 (peptide)
peptide: cyclo([Bip(4'-COOH)][Ala(1-bicyclo(1.1.1)pentyl)][Phe(4-COOH)]G[Pro(cis-4-F)][Trp(βS-Me,4-F)][Aib]SW[d(αMeD)][4PyrimAla]Q[Dab]G[dProc3CH24Pal])
modifications: ring closure inferred
B16: SEQ ID NO 275 (peptide)
peptide: cyclo([Bip(4'-COOH)][4Pal][orbOHorPhe4COOH]G[Pro(cis-4-F)][Trp(βS-Me,4-F)][Aib]SW[Aib][Ala(pyrimidin-5-yl)]Q[Dab]G[dPro(4R-Bzl(4-F))])
modifications: ring closure inferred
B17: SEQ ID NO 282 (peptide)
peptide: cyclo([Phe4Pyrim][4Pal][Phe(4-COOH)]G[Pro(cis-4-F)][Trp(βS-Me,4-F)][Aib]SW[d(αMeD)][Ala(pyrimidin-5-yl)]Q[Dab]G[dPro(3S-(4-F-Bn))])
modifications: ring closure inferred
B18: SEQ ID NO 287 (peptide)
peptide: cyclo([Bip(4'-COOH)][4Pal][Phe(4-COOH)]G[Pro(cis-4-F)][Trp(βS-Me,4-F)][Aib]SW[d(αMeD)][Ala(piperazin-1-yl)]Q[Dab]G[dPro(3S-(4-F-Bn))])
modifications: ring closure inferred
B19: SEQ ID NO 285 (peptide)
peptide: cyclo([Bip(4'-COOH)][Ala(1-bicyclo(1.1.1)pentyl)][Phe(4-COOH)]G[Pro(cis-4-F)][Trp(βS-Me,4-F)][Aib]SW[d(αMeD)][4PyrimAla]Q[Dab]G[dPro(4R-(4-pyridylmethyl))])
modifications: ring closure inferred

molecular target: Recombinant human IL-1β (BioLegend 579404) (human, UniProt P01584 117-269); test: cell-based or functional assay

MRC5 IC50 [nM]	Binder
0.019	B1
0.015	B2
0.013	B3
0.015	B4
0.016	B5
0.017	B6
0.021	B7
0.018	B8
0.01	B9
0.016	B10
0.023	B11
0.018	B12
0.01	B13
0.012	B14
0.015	B15
0.018	B16
0.014	B17
0.011	B18
0.013	B19
